Measurements as given in paper doi:10.1101/2020.08.21.261974.

Target: BG505 SOSIP.664 native-like envelope gp140 trimer (HIV-1 (BG505))
Test: cryo-EM structure

M48U1 peptide
stoichiometry N (per BG505 trimer): 3
